Results on 4 proteins are retold here after patent US6541002.

The target of this data set is T1, Vpr protein of HIV-1, P12520.
T1 chain: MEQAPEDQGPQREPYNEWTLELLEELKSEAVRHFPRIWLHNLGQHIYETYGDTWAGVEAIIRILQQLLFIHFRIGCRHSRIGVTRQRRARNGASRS

B1: dWF-CAT chimeric protein (protein)
chain: MQPWWAFFGGGSSWWSFSMGPTRMEKKITGYTTVDISQWHRKEHFEAFQSVAQCTYNQTVQLDITAFLKTVKKNKHKFYPAFIHILARLMNAHPEFRMAMKDGELVIWDSVHPCYTVFHEQTETFSSLWSEYHDDFRQFLHIYSQDVACYGENLAYFPKGFIENMFFVSANPWVSFTSFDLNVANMDNFFAPVFTMGKYYTQGDKVLMPLAIQVHHAVCDGFHVGRMLNELQQYCDEWQGGA
For B1, the “CAT activity of virions (conversion of chloramphenicol to an acetylated product)” value is on record as “virions which were generated by WT/WF-CAT cells exhibited significantly higher CAT activity (28% conversion of chloramphenicol to an acetylated product) than virions which were generated by Vpr^-/WF-CAT cells (8% conversion)”.

B2: dWF-IN fusion protein (protein)
chain: MQPWWAFFGGGSSWWSFSMGPTRFLDGIDKAQEEHEKYHSNWRAMASDFNLPPVVAKEIVASCDKCQLKGEAMHGQVDCSPGIWQLDCTHLEGKVILVAVHVASGYIEAEVIPAETGQETAYFLLKLAGRWPVKTVHTDNGSNFTSTTVKAACWWAGIKQEFGIPYNPQSQGVIESMNKELKKIIGQVRDQAEHLKTAVQMAVFIHNFKRKGGIGGYSAGERIVDIIATDIQTKELQKQITKIQNFRVYYRDSRDPVWKGPAKLLWKGEGAVVIQDNSDIKVVPRRKAKIIRDYGKQMAGDDCVASRQDED
For B2, the “presence of the fusion protein in progeny virions (Western blotting)” value was “the presence of dWF-fusion proteins in progeny virions was dependent on expression of Vpr in cells in which the progeny virions were produced”.

B3: dWF-PR-IN fusion protein (protein)
chain: MQPWWAFFGGGSSWWSFSMGPTRFLDGIDKAQEEHEKYHSNWRAMASDFNLPPVVAKEIVASCDKCQLKGEAMHGQVDCSPGIWQLDCTHLEGKVILVAVHVASGYIEAEVIPAETGQETAYFLLKLAGRWPVKTVHTDNGSNFTSTTVKAACWWAGIKQEFGIPYNPQSQGVIESMNKELKKIIGQVRDQAEHLKTAVQMAVFIHNFKRKGGIGGYSAGERIVDIIATDIQTKELQKQITKIQNFRVYYRDSRDPVWKGPAKLLWKGEGAVVIQDNSDIKVVPRRKAKIIRDYGKQMAGDDCVASRQDED
As for B3, the “presence of the fusion protein in progeny virions (Western blotting)” value was “the presence of dWF-fusion proteins in progeny virions was dependent on expression of Vpr in cells in which the progeny virions were produced”.

B4: chloramphenicol acetyltransferase (CAT) (protein)
chain: MEKKITGYTTVDISQWHRKEHFEAFQSVAQCTYNQTVQLDITAFLKTVKKNKHKFYPAFIHILARLMNAHPEFRMAMKDGELVIWDSVHPCYTVFHEQTETFSSLWSEYHDDFRQFLHIYSQDVACYGENLAYFPKGFIENMFFVSANPWVSFTSFDLNVANMDNFFAPVFTMGKYYTQGDKVLMPLAIQVHHAVCDGFHVGRMLNELQQYCDEWQGGA
Take B4: the “CAT activity of virions (conversion of chloramphenicol to an acetylated product)” value is “CAT activity exhibited by virions which were generated by Vpr^-/WF-CAT cells was comparable to CAT activity exhibited by virions which were generated by WT/CAT cells (each 8% conversion”.
